Results on 27 sequences are retold here after the domain aggregation screens of Martell et al. (2025).

The data set in a line: soluble fraction after stress (log2 fold change); higher = more stays soluble; pooled small domains, quantitative proteomics. As to conditions: stress: pH 4. Put shortly: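 High-throughput quantitative proteomics was run on pooled custom libraries of small protein domains following pH 4 stress. Fold changes are on a log2 scale; higher values mean more of a domain remained soluble. The fold change in soluble amount is taken as a measure of aggregation propensity.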

“HMGVRDIRIFERNNSFFVNAEIRGEAQLSVPITRTDYQLFKENKIDALSLVEKYYAEELNASNEMK”: the “soluble fraction (log2)” value amounted to 0.155.

For “HMGVSLNELAYRRFKQALVTLSYKPGEYLNTAQVMNDLDMGRTPINQAIHRLANEGLLQVIPRKGVMVS”, the “soluble fraction (log2)” value stood at 0.026.

Regarding “HMGVTDLFAVLGFPRSPWLDAEELKQRHHALMADEASANSSPTILNEARRTLQNPALRIRHFLALEFPDH”, the “soluble fraction (log2)” value was -0.82.

Take “HMGVYDLIYLGYGINVEKEELVDQNISIIRRYANIFDPNGDIKGSTNPTYASNTAVLFNEAKFIIDGYD”: the “soluble fraction (log2)” value is -1.79.

“HMGWQPDPLTTRERLVAELATQASNAQIAEQLHLSVRTVEGHLAHVYTKLGITTRRELPAALAGAR”: the “soluble fraction (log2)” value is -2.8e-05.

Turning to “HMGWTTPAGIAVGMDKSVLQDAYGKEDDTFQDKGILYYQYFVHPSRMSGLSFGIKNDKIVSITAYMD”, the “soluble fraction (log2)” value was -1.23.

Regarding “HMGYDDLEPFDANGRLRWSDQELVLAFGRHRGATLRTLELNDPSYLRWLLSGNGPLEQQDIQRLEQILES”, the “soluble fraction (log2)” value was -1.44.

With “HMGYDLLFQQALGFHEQGRLNEAENIYRQILETAPNNPDILNLLGLIAQQKGLHAQAVDYFYQAIRL”, the “soluble fraction (log2)” value is -1.9.

“HMGYDVAEVKFRLIKLLRDSKIGISGVEISERLGINRVTMTKYLNIFSAEGVIGEKNIGNVNLWFVYEGIE”: the “soluble fraction (log2)” value was -0.186.

Turning to “HMGYQLSLEAQSQLKALGLTSEYITRILDEADNRQPIPGTSRTVYSLNGYQVEFSHSDQQVIRIARG”, the “soluble fraction (log2)” value was -0.262.

Take “HMGYSDEIGEFIKKLRTENHLTQKEFADKYGVTYQAVSKWENGKNLPDMSLIKQMSEDFNIGIDELLDGEK”: the “soluble fraction (log2)” value was -0.454.

As for “HMGYTLDVAHGVTEDMNFSEAFATAREEVGPGGIFYWHGKPYGTYYENEWNAMDEEDKAEYWDAVGRTTA”, the “soluble fraction (log2)” value is -0.508.

In the case of “HMHANSDVEQLMQMGIQRLNFQRYSDALLIFNQIIENFPDYAEAWNKRATLHYLLGNLDKSIADIEQTLE”, the “soluble fraction (log2)” value is -1.54.

“HMHAPIAELKKVFKEEFADQEVTVRQLAGSVLLSGNVKTAELRENLESVAKQFFPRVINNLKLI”: the “soluble fraction (log2)” value stood at 0.0685.

For “HMHDAKAEIIRLSALLTEYQRSYYIDGHSQVSDLEYDRLFDRLVALETSHPELREADSPTQRV”, the “soluble fraction (log2)” value was -1.14.

Take “HMHDAKTQLQEEAARRGLPAPVYTRIGQEGPDHAPRFRVRADVGPHQAEAVAGSLKLAQAEAARAILRQMP”: the “soluble fraction (log2)” value worked out at 0.28.

With “HMHDITPAVAETFKQLRAERGLSLSQAAQLTGVSKAMLGQIERGQSSPTVSTLWKIATGFNVAFSVFL”, the “soluble fraction (log2)” value is -0.309.

“HMHDLGEQIIEKLRASGGISTLTDKSDPDAIYRQFKVSKKKYKQALGTLYKSRRITLAPNQIKLA”: the “soluble fraction (log2)” value came out at 0.22.

Regarding “HMHDPLATLTPREHEVMSLMAEGRTNAAIAQALVIGTGAVEKNVTSIFQKLGLDDSGTDHRRVLAVLAWLQ”, the “soluble fraction (log2)” value was -1.18.

For “HMHDRRSGKVKWYSDRKGYGFIDLDGGEVFIHRSALIAFGALRLQAEDIITITVRETDRGLVVDQLFGIER”, the “soluble fraction (log2)” value was -1.63.

On to “HMHEAILNQIRNEELMLYIGELSDAQQDVILLKYFHQMTFKEIAESFSIPISTVKTRHTAALKKLSTLWK”, for which the “soluble fraction (log2)” value turned out to be 0.0907.

As to “HMHESLAEVAARKLRALIVTGELAPGERVTEAGLTDLLEISRTPAREAIRILSSEGLLVVFPNRGAEVV”, the “soluble fraction (log2)” value was -0.815.

With “HMHEYSDIEHRILDAAREVFIRKGYDSATMGDIALLAGMSRTSVNYYFRNKERLFEAIFEEII”, the “soluble fraction (log2)” value is -1.25.

As for “HMHFDQILAHAMDERGMNAVQLASLTGLSSGAISRYLAGDRQPTVYSIQQIAKALGVSADYLVG”, the “soluble fraction (log2)” value was 0.22.

As to “HMHGEAEFLDATAVVMEKLNPGGLVKIKGEIWQAVSKDGHTIQEGEKVRVFERQGITLLVGHF”, the “soluble fraction (log2)” value was -0.223.

For “HMHGTIHSAAYGGDIEAVKKFLAAGADVNANGGGRTPLDLAIQVKNTEIADLLRKHGGKTGDELKA”, the “soluble fraction (log2)” value was found to be 0.398.

On to “HMHGYLSDPAARLIRARRKTLSIRITQEGNLEIRAPLGMPKGEIEAFLKEKAQWIETHRAKVLAEYA”, for which the “soluble fraction (log2)” value is -0.138.
